Measurements published in publication PMC4018323.

Target: GOLPH3 (endogenous) (human (endogenous in HeLa)) (UniProt Q9H4A6)
Assay: co-IP
Settings: remark: other sources report otherwise

Sequence of GOLPH3 (endogenous) (human (endogenous in HeLa)) (Q9H4A6 whole entry): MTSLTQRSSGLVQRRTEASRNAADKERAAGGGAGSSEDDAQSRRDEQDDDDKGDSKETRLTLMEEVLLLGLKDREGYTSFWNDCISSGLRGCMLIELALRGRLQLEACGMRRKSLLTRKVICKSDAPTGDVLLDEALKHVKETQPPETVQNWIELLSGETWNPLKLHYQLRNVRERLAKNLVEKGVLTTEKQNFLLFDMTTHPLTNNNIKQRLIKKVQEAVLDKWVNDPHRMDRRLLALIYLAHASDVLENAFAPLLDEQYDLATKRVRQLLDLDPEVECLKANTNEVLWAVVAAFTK

## MYO18A (endogenous), Q92614 1-2054
  fold increase in association after CPT versus DMSO control: 3.7 fold
